From patent US20160206764A1 (ONCOINVENT, published 2016)

Legend:
[1] = target: CD146 (melanoma cell adhesion molecule (MCAM), cell surface glycoprotein MUC18), endogenous on human tumor cell lines (human) (UniProt P43121); assay: MelJRpost3.3 cells pre-treated with OJ97cMUC18; competitor/tracer ^125I-OI-3
[2] = target: T1, CD146 (melanoma cell adhesion molecule (MCAM), cell surface glycoprotein MUC18), endogenous on human tumor … (human, UniProt P43121 24-646); assay: saturation binding of ^125I-OI-3 to Mel 3.3 melanoma cells, interpolation of binding plot at half βmax
T1 construct: whole, on cells; Also used here for the endogenous protein in lysates and tissue sections of these cells (Western blot, immunoprecipitation, IHC); also called Mel-CAM

[3] = target: T1, CD146 (melanoma cell adhesion molecule …); assay: saturation binding of ^125I-OI-3 to Mel 3.3 melanoma cells, Scatchard plot
[4] = target: T1, CD146 (melanoma cell adhesion molecule …); assay: saturation binding of ^125I-OI-3 to Mel 3.3 melanoma cells, Ka=1/Kd

commercial murine monoclonal anti-CD146 (OJ79c MUC18) (antibody)
specific binding in % of ^125I-OI-3 after pre-treatment (no pretreatment = 100%) [1]: 101%

B1: OI-3 murine monoclonal antibody (antibody, V domains shown)
VH: EVQLQQSGPELVKTGASVKISCKASGYSFTGYYIHWVKQSHGKSLEWIGYISNYNGATTYSQEFKGKATFTVDRSSRIAYMQFTGLTSEDSAVYYCAGNSWGDWYFDVWGAGTTVTVSS
VL: DVVMTQTPLSLPVSLGDQASISCRSSQSLVHSNGNTYLHWYLQKPGQSPKLLIYKVSNRFSGVPDRFSGSGSGTDFTLKISRVEAEDLGVYFCSQSTHVSTFGGGTKLEIK
notes: also called ^177Lu-OI-3
Kd [2]: 3.1 nM | Kd [3]: ~3.1 nM | Ka [4]: ~3.2e+08 M⁻¹
